The record followed here is patent US20140087995A1 (published 2014).

B1: N^ε1-[(4S)-4-carboxy-4-(19-carboxynonadecanoylamino)butanoyl]-[Arg14,Arg17,Pro21,Pro27]-h-amylin (peptide)
peptide: K([γGlu-C20 diacid])CNTATCATQRLARFLRHSSPNFGAIPSSTNVGSNTY-NH2
modifications: disulfide 2-7; N-terminus assumed
SMILES: CC[C@H](C)[C@H](NC(=O)[C@H](C)NC(=O)CNC(=O)[C@H](Cc1ccccc1)NC(=O)[C@H](CC(N)=O)NC(=O)[C@@H]1CCCN1C(=O)[C@H](CO)NC(=O)[C@H](CO)NC(=O)[C@H](Cc1c[nH]cn1)NC(=O)[C@H](CCCNC(=N)N)NC(=O)[C@H](CC(C)C)NC(=O)[C@H](Cc1ccccc1)NC(=O)[C@H](CCCNC(=N)N)NC(=O)[C@H](C)NC(=O)[C@H](CC(C)C)NC(=O)[C@H](CCCNC(=N)N)NC(=O)[C@H](CCC(N)=O)NC(=O)[C@@H](NC(=O)[C@H](C)NC(=O)[C@@H]1CSSC[C@H](NC(=O)[C@@H](N)CCCCNC(=O)CC[C@H](NC(=O)CCCCCCCCCCCCCCCCCCC(=O)O)C(=O)O)C(=O)N[C@@H](CC(N)=O)C(=O)N[C@@H]([C@@H](C)O)C(=O)N[C@@H](C)C(=O)N[C@@H]([C@@H](C)O)C(=O)N1)[C@@H](C)O)C(=O)N1CCC[C@H]1C(=O)N[C@@H](CO)C(=O)N[C@@H](CO)C(=O)N[C@H](C(=O)N[C@@H](CC(N)=O)C(=O)N[C@H](C(=O)NCC(=O)N[C@@H](CO)C(=O)N[C@@H](CC(N)=O)C(=O)N[C@H](C(=O)N[C@@H](Cc1ccc(O)cc1)C(N)=O)[C@@H](C)O)C(C)C)[C@@H](C)O
notes: also called compound 83
B2: N^ε1-[(4S)-4-carboxy-4-(19-carboxynonadecanoylamino)butanoyl]-[Glu14,Arg17,Pro21,Pro27,Pro34,Glu35]-h-amylin (peptide)
peptide: K([γGlu-C20 diacid])CNTATCATQRLAEFLRHSSPNFGAIPSSTNVGPETY-NH2
modifications: disulfide 2-7; N-terminus assumed
SMILES: CC[C@H](C)[C@H](NC(=O)[C@H](C)NC(=O)CNC(=O)[C@H](Cc1ccccc1)NC(=O)[C@H](CC(N)=O)NC(=O)[C@@H]1CCCN1C(=O)[C@H](CO)NC(=O)[C@H](CO)NC(=O)[C@H](Cc1c[nH]cn1)NC(=O)[C@H](CCCNC(=N)N)NC(=O)[C@H](CC(C)C)NC(=O)[C@H](Cc1ccccc1)NC(=O)[C@H](CCC(=O)O)NC(=O)[C@H](C)NC(=O)[C@H](CC(C)C)NC(=O)[C@H](CCCNC(=N)N)NC(=O)[C@H](CCC(N)=O)NC(=O)[C@@H](NC(=O)[C@H](C)NC(=O)[C@@H]1CSSC[C@H](NC(=O)[C@@H](N)CCCCNC(=O)CC[C@H](NC(=O)CCCCCCCCCCCCCCCCCCC(=O)O)C(=O)O)C(=O)N[C@@H](CC(N)=O)C(=O)N[C@@H]([C@@H](C)O)C(=O)N[C@@H](C)C(=O)N[C@@H]([C@@H](C)O)C(=O)N1)[C@@H](C)O)C(=O)N1CCC[C@H]1C(=O)N[C@@H](CO)C(=O)N[C@@H](CO)C(=O)N[C@H](C(=O)N[C@@H](CC(N)=O)C(=O)N[C@H](C(=O)NCC(=O)N1CCC[C@H]1C(=O)N[C@@H](CCC(=O)O)C(=O)N[C@H](C(=O)N[C@@H](Cc1ccc(O)cc1)C(N)=O)[C@@H](C)O)C(C)C)[C@@H](C)O
B3: N^ε1-[(4S)-4-carboxy-4-(19-carboxynonadecanoylamino)butanoyl]-[Glu14,Arg17,Pro21,Pro27,Arg34,Glu35]-h-amylin (peptide)
peptide: K([γGlu-C20 diacid])CNTATCATQRLAEFLRHSSPNFGAIPSSTNVGRETY-NH2
modifications: disulfide 2-7; N-terminus assumed
SMILES: CC[C@H](C)[C@H](NC(=O)[C@H](C)NC(=O)CNC(=O)[C@H](Cc1ccccc1)NC(=O)[C@H](CC(N)=O)NC(=O)[C@@H]1CCCN1C(=O)[C@H](CO)NC(=O)[C@H](CO)NC(=O)[C@H](Cc1c[nH]cn1)NC(=O)[C@H](CCCNC(=N)N)NC(=O)[C@H](CC(C)C)NC(=O)[C@H](Cc1ccccc1)NC(=O)[C@H](CCC(=O)O)NC(=O)[C@H](C)NC(=O)[C@H](CC(C)C)NC(=O)[C@H](CCCNC(=N)N)NC(=O)[C@H](CCC(N)=O)NC(=O)[C@@H](NC(=O)[C@H](C)NC(=O)[C@@H]1CSSC[C@H](NC(=O)[C@@H](N)CCCCNC(=O)CC[C@H](NC(=O)CCCCCCCCCCCCCCCCCCC(=O)O)C(=O)O)C(=O)N[C@@H](CC(N)=O)C(=O)N[C@@H]([C@@H](C)O)C(=O)N[C@@H](C)C(=O)N[C@@H]([C@@H](C)O)C(=O)N1)[C@@H](C)O)C(=O)N1CCC[C@H]1C(=O)N[C@@H](CO)C(=O)N[C@@H](CO)C(=O)N[C@H](C(=O)N[C@@H](CC(N)=O)C(=O)N[C@H](C(=O)NCC(=O)N[C@@H](CCCNC(=N)N)C(=O)N[C@@H](CCC(=O)O)C(=O)N[C@H](C(=O)N[C@@H](Cc1ccc(O)cc1)C(N)=O)[C@@H](C)O)C(C)C)[C@@H](C)O
B4: N^ε1-[(4S)-4-carboxy-4-(19-carboxynonadecanoylamino)butanoyl]-[Glu14,Arg17,Pro21,Pro27,His34,Glu35]-h-amylin (peptide)
peptide: K([γGlu-C20 diacid])CNTATCATQRLAEFLRHSSPNFGAIPSSTNVGHETY-NH2
modifications: disulfide 2-7; N-terminus assumed
SMILES: CC[C@H](C)[C@H](NC(=O)[C@H](C)NC(=O)CNC(=O)[C@H](Cc1ccccc1)NC(=O)[C@H](CC(N)=O)NC(=O)[C@@H]1CCCN1C(=O)[C@H](CO)NC(=O)[C@H](CO)NC(=O)[C@H](Cc1c[nH]cn1)NC(=O)[C@H](CCCNC(=N)N)NC(=O)[C@H](CC(C)C)NC(=O)[C@H](Cc1ccccc1)NC(=O)[C@H](CCC(=O)O)NC(=O)[C@H](C)NC(=O)[C@H](CC(C)C)NC(=O)[C@H](CCCNC(=N)N)NC(=O)[C@H](CCC(N)=O)NC(=O)[C@@H](NC(=O)[C@H](C)NC(=O)[C@@H]1CSSC[C@H](NC(=O)[C@@H](N)CCCCNC(=O)CC[C@H](NC(=O)CCCCCCCCCCCCCCCCCCC(=O)O)C(=O)O)C(=O)N[C@@H](CC(N)=O)C(=O)N[C@@H]([C@@H](C)O)C(=O)N[C@@H](C)C(=O)N[C@@H]([C@@H](C)O)C(=O)N1)[C@@H](C)O)C(=O)N1CCC[C@H]1C(=O)N[C@@H](CO)C(=O)N[C@@H](CO)C(=O)N[C@H](C(=O)N[C@@H](CC(N)=O)C(=O)N[C@H](C(=O)NCC(=O)N[C@@H](Cc1c[nH]cn1)C(=O)N[C@@H](CCC(=O)O)C(=O)N[C@H](C(=O)N[C@@H](Cc1ccc(O)cc1)C(N)=O)[C@@H](C)O)C(C)C)[C@@H](C)O
notes: also called compound 107
B5: N^ε1-[(4S)-4-carboxy-4-(19-carboxynonadecanoylamino)butanoyl]-[Glu14,Arg17,Pro21,Pro27,Pro34,Arg35]-h-amylin (peptide)
peptide: K([γGlu-C20 diacid])CNTATCATQRLAEFLRHSSPNFGAIPSSTNVGPRTY-NH2
modifications: disulfide 2-7; N-terminus assumed
SMILES: CC[C@H](C)[C@H](NC(=O)[C@H](C)NC(=O)CNC(=O)[C@H](Cc1ccccc1)NC(=O)[C@H](CC(N)=O)NC(=O)[C@@H]1CCCN1C(=O)[C@H](CO)NC(=O)[C@H](CO)NC(=O)[C@H](Cc1c[nH]cn1)NC(=O)[C@H](CCCNC(=N)N)NC(=O)[C@H](CC(C)C)NC(=O)[C@H](Cc1ccccc1)NC(=O)[C@H](CCC(=O)O)NC(=O)[C@H](C)NC(=O)[C@H](CC(C)C)NC(=O)[C@H](CCCNC(=N)N)NC(=O)[C@H](CCC(N)=O)NC(=O)[C@@H](NC(=O)[C@H](C)NC(=O)[C@@H]1CSSC[C@H](NC(=O)[C@@H](N)CCCCNC(=O)CC[C@H](NC(=O)CCCCCCCCCCCCCCCCCCC(=O)O)C(=O)O)C(=O)N[C@@H](CC(N)=O)C(=O)N[C@@H]([C@@H](C)O)C(=O)N[C@@H](C)C(=O)N[C@@H]([C@@H](C)O)C(=O)N1)[C@@H](C)O)C(=O)N1CCC[C@H]1C(=O)N[C@@H](CO)C(=O)N[C@@H](CO)C(=O)N[C@H](C(=O)N[C@@H](CC(N)=O)C(=O)N[C@H](C(=O)NCC(=O)N1CCC[C@H]1C(=O)N[C@@H](CCCNC(=N)N)C(=O)N[C@H](C(=O)N[C@@H](Cc1ccc(O)cc1)C(N)=O)[C@@H](C)O)C(C)C)[C@@H](C)O

Numbered stars: 1 amine (or outer) side, 2 acyl side, 3 side chain; on linkers, the order of the positions; unused ones are H or OH. Bridge positions count the residues as written; N and C are the ends. Side chains are listed from the residue outwards. Ends that are not written are not given here. * marks the point of attachment. C20 diacid = O=C(O)CCCCCCCCCCCCCCCCCCC(=O)*; γGlu = O=C(O)[C@H](CCC(=O)[*:2])N[*:1]

The first test concerns the target T1, rat calcitonin receptor (rat, UniProt P32214 25-516).
T1 construct: whole, on cells; Membranes of transiently transfected BHK tk'ts 13 cells (Assay VIII); also called rCTR
T1 sequence (looked up): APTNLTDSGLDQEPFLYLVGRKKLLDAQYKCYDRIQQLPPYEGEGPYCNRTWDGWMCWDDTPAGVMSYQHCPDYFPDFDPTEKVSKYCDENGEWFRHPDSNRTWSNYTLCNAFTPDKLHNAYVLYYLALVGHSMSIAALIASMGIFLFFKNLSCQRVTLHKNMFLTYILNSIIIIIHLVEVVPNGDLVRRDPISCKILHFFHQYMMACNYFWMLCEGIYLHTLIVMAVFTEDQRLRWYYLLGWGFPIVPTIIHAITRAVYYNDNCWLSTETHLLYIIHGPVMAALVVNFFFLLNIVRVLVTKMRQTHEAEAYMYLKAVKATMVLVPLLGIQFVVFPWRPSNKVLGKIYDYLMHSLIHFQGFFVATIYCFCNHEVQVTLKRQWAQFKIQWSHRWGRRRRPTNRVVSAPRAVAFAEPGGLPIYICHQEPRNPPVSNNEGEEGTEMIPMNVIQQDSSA
Briefly: ratio IC50 rat calcitonin receptor / IC50 rat amylin receptor (reference).
B1: the “Ratio rCT/rAmylin binding” value was found to be 49.7.

For B2, the “Ratio rCT/rAmylin binding” value is 63.2.

Regarding B3, the “Ratio rCT/rAmylin binding” value stood at 81.1.

With B4, the “Ratio rCT/rAmylin binding” value was 34.6.

On to B5, for which the “Ratio rCT/rAmylin binding” value is 45.5.

The next test deals with T2, human calcitonin receptor (human, UniProt P30988 25-474).
T2 construct: whole, on cells; Membranes of a stably transfected BHK cell line (Assay VII); also called hCTR; hCT
T2 sequence (looked up): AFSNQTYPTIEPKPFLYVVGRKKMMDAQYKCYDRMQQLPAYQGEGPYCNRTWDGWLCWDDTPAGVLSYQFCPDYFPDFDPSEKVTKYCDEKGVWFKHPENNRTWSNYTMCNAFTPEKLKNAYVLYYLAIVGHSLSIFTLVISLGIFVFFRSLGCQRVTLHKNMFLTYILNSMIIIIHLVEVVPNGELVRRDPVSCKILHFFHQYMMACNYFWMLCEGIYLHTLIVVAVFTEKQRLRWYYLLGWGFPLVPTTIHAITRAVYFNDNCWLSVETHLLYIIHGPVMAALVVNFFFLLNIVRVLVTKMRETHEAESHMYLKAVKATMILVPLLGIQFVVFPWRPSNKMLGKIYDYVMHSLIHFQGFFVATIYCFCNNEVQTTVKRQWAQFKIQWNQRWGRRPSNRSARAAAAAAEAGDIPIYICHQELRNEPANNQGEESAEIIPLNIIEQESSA
Kind of test: ratio IC50 human calcitonin receptor / IC50 human amylin receptor (reference). Put shortly:
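IC₅₀ values were derived by one-site competition analysis of SPA counts. Cell membranes (35 ng/μL) with SPA beads were incubated with test compounds for 120 min at 25° C in Hepes buffer, pH 7.4, containing CaCl2, MgCl₂, OA and Tween20.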
In the case of B1, the “Ratio hCT/hAmylin binding” value turned out to be 146.

Take B2: the “Ratio hCT/hAmylin binding” value was found to be 13.3.

In the case of B3, the “Ratio hCT/hAmylin binding” value was found to be 28.5.

Regarding B4, the “Ratio hCT/hAmylin binding” value was found to be 11.1.

With B5, the “Ratio hCT/hAmylin binding” value is 38.6.

The next test addresses T1, rat calcitonin receptor. Briefly: SPA competition with 125I-calcitonin, membranes of BHK cells with rat calcitonin receptor (Assay VIII).
In the case of B1, the IC50 (commonly the point on the concentration scale where inhibition reaches its midpoint) was 140 nM.

As for B2, the IC50 is 10.4 nM.

On to B3, for which the IC50 is 86.1 nM.

Take B4: the IC50 stood at 33.1 nM.

With B5, the IC50 was 15.4 nM.

Another test has as its target T3, rat amylin receptor (rat calcitonin receptor + rat RAMP 3) (rat, UniProt P32214 25-516; Q9JJ73 23-147).
T3 construct: whole, on cells; Membranes of transiently transfected BHK tk'ts 13 cells (Assay VI); also called rAmylin-R; rat amylin 3(a) receptor
T3 sequence (looked up) 1: T1 sequence (looked up)
T3 sequence (looked up) 2: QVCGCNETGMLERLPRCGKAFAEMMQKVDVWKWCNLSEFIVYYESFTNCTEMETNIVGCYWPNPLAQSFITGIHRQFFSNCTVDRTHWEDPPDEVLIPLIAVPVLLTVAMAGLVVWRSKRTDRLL
Briefly: SPA competition with 125I-rat amylin, membranes of BHK cells with rat calcitonin receptor + rat RAMP3 (Assay VI).
Consider B1, for which the IC50 stood at 2.83 nM.

In the case of B2, the IC50 is 0.164 nM.

As to B3, the IC50 was 1.06 nM.

Turning to B4, the half-maximal inhibitory concentration (IC50) turned out to be 0.958 nM.

As to B5, the IC50 turned out to be 0.339 nM.
